In US20190142971A1, “FORMULATION AND DELIVERY OF MODIFIED NUCLEOSIDE, NUCLEOTIDE, AND NUCLEIC ACID COMPOSITIONS” (ModernaTX, Inc., priority 2013, published 2019):
Where two headings read alike, the source gives them in different places.

Key:
[1] = tested on: peripheral blood mononuclear cells (PBMC); assay: Example 56: percent modification, PBMC G-CSF ELISA (Table 85); format: cell-based, human; details: 22 hours after transfection
Method: (§1) 480 ng of G-CSF mRNA modified with 5-methylcytosine (5mC) and pseudouridine (pseudoU) or unmodified G-CSF mRNA was transfected with 0.4 uL of Lipofectamine 2000 into peripheral blood mononuclear cells (PBMC) from three normal blood donors (D1, D2, and D3). […] The supernatant was harvested and run by ELISA 22 hours after transfection to determine the protein expression. The expression of IFN-alpha and TNF-alpha may be a secondary effect from the transfection of the G-CSF mRNA.

C57/BL6 mice = assay: Example 32B: human G-CSF lipoplex IM, SC, IV in mice, serum G-CSF ELISA at 6 hours (Table 56); format: in vivo; details: serum 6 hours after administration
Method: 6 hours after administration of a formulation, serum was collected from each mouse to measure the amount of human G-CSF protein in the mouse serum by human G-CSF ELISA and the results are shown in Table 56.

human PBMC = assay: Example 45: PBMC transfection, IFN-alpha ELISA (Table 72); format: cell-based
Method: The plates were then incubated at 37 C.
Each condition was done in duplicate.
Shown in Tables 71 and 72 are the average from 2 separate PBMC donors of the G-CSF and IFN-alpha production over time as measured by specific ELISA.

HEK293 cells = assay: Example 46B: percent modification, HEK293 G-CSF ELISA (Table 75); format: cell-based, Human
[2] = tested on: peripheral blood mononuclear cells (PBMC); assay: Example 56: PBMC IFN-alpha and TNF-alpha ELISA and protein/cytokine ratio (Tables 86, 87); format: cell-based, human
Method: as §1
As mentioned above, using PBMC as an in vitro assay system it is possible to establish a correlation between translation (in this case G-CSF protein production) and cytokine production (in this case exemplified by IFN-alpha protein production). Better protein production is correlated with lower induction of innate immune activation pathway, and the percentage modification of a chemistry can be judged favorably based on this ratio (Table 87).

Sprague Dawley rats = assay: Example 60: G-CSF/Factor IX mRNA IM in rats, serum G-CSF ELISA (Table 94); format: in vivo; details: I.M., 400 ug in 100 ul, 5% sucrose, 8 hours after injection
Method: Protein production of modified mRNA was evaluated by delivering modified G-CSF mRNA or modified Factor IX mRNA to female Sprague Dawley rats (n=6). […] Blood was collected 8 hours after injection and the G-CSF protein level in serum was measured by ELISA.

mice = details: for Serum Concentration 8-12 hours after administration: G-CSF; for G-CSF Protein Expression, Conc: LNP IV, mice, 8 hrs
BJ fibroblasts = details: for IFN-beta / IL-6: 250 ng transfected daily for 5 days

Luciferase: luciferase mRNA, SEQ ID NO: 14, Cap1, fully modified with 5-methylcytosine and pseudouridine
G-CSF Expression ([1]; PBMC donor D1, 480 ng mRNA): 90.2 pg/mL
G-CSF Expression ([1]; PBMC donor D2, 480 ng mRNA): 0.0 pg/mL
G-CSF Expression ([1]; PBMC donor D3, 480 ng mRNA): 22.1 pg/mL

B1: G-CSF: modified mRNA encoding human G-CSF, SEQ ID NO: 4, Cap1, fully modified with 5-methylcytosine and pseudouridine; LNP-formulated in Examples 16-22 (nucleic acid)
chain: GGGAAAUAAGAGAGAAAAGAAGAGUAAGAAGAAAUAUAAGAGCCACCAUGGCCGGUCCCGCGACCCAAAGCCCCAUGAAACUUAUGGCCCUGCAGUUGCUGCUUUGGCACUCGGCCCUCUGGACAGUCCAAGAAGCGACUCCUCUCGGACCUGCCUCAUCGUUGCCGCAGUCAUUCCUUUUGAAGUGUCUGGAGCAGGUGCGAAAGAUUCAGGGCGAUGGAGCCGCACUCCAAGAGAAGCUCUGCGCGACAUACAAACUUUGCCAUCCCGAGGAGCUCGUACUGCUCGGGCACAGCUUGGGGAUUCCCUGGGCUCCUCUCUCGUCCUGUCCGUCGCAGGCUUUGCAGUUGGCAGGGUGCCUUUCCCAGCUCCACUCCGGUUUGUUCUUGUAUCAGGGACUGCUGCAAGCCCUUGAGGGAAUCUCGCCAGAAUUGGGCCCGACGCUGGACACGUUGCAGCUCGACGUGGCGGAUUUCGCAACAACCAUCUGGCAGCAGAUGGAGGAACUGGGGAUGGCACCCGCGCUGCAGCCCACGCAGGGGGCAAUGCCGGCCUUUGCGUCCGCGUUUCAGCGCAGGGCGGGUGGAGUCCUCGUAGCGAGCCACCUUCAAUCAUUUUUGGAAGUCUCGUACCGGGUGCUGAGACAUCUUGCGCAGCCGUGAAGCGCUGCCUUCUGCGGGGCUUGCCUUCUGGCCAUGCCCUUCUUCUCUCCCUUGCACCUGUACCUCUUGGUCUUUGAAUAAAGCCUGAGUAGGAAG
modifications: Cap1, 5-methylcytosine, pseudouridine
Human G-CSF in Serum (C57/BL6 mice; I.M., 100 μg): 85.6 pg/mL
Human G-CSF in Serum (C57/BL6 mice; I.V., 100 μg (Luc-unsp 150 μg)): 31.0 pg/mL
Human G-CSF in Serum (C57/BL6 mice; S.C., 100 μg): 3.9 pg/mL
IFN-alpha / cytokine production (human PBMC): induced IFN-alpha, TNF-alpha and IP10
half-life of mRNA (HEK293 cells): 8 to 10 h
protein/cytokine ratio vs natural G-CSF mRNA ([2]; IFN-alpha): 100 fold
protein/cytokine ratio vs natural G-CSF mRNA ([2]; TNF-alpha): 27 fold
G-CSF protein in rat serum (Sprague Dawley rats): 19.37 pg/mL
Serum Concentration 8-12 hours after administration (mice; IM, 100 ug): ~20 to 80 pg/mL
Serum Concentration 8-12 hours after administration (mice; IV (LNP), 1 ug): ~20,000 pg/ml
Serum Concentration 8-12 hours after administration (mice; IV (LNP), 10 ug): ~1,000,000 pg/ml
Serum Concentration 8-12 hours after administration (mice; IV (LNP), 100 ug): ~5,000,000 pg/ml
Serum Concentration 8-12 hours after administration (mice; IV (Lipoplex), 100 ug): ~30 pg/mL
Serum Concentration 8-12 hours after administration (mice; SC, 100 ug): ~10 to 40 pg/mL
G-CSF Protein Expression, Conc (mice; dose 10 ug): 1204.82 ng/mL
G-CSF Protein Expression, Conc (mice; dose 100 ug): 4722.20 ng/mL
time to cytokine response (IFN-beta, IL-6) (BJ fibroblasts): 2 to 3 days
IFN-beta (BJ fibroblasts; 6 hours): 0 pg/mL
IL-6 (BJ fibroblasts; 6 hours): 3396 pg/mL
IFN-beta (BJ fibroblasts; Day 1): 38 pg/mL
IL-6 (BJ fibroblasts; Day 1): 3870 pg/mL
IFN-beta (BJ fibroblasts; Day 2): 1125 pg/mL
IL-6 (BJ fibroblasts; Day 2): 16341 pg/mL
IFN-beta (BJ fibroblasts; Day 3): 100 pg/mL
IL-6 (BJ fibroblasts; Day 3): 25983 pg/mL
IFN-beta (BJ fibroblasts; Day 4): 75 pg/mL
IL-6 (BJ fibroblasts; Day 4): 18922 pg/mL
IFN-beta (BJ fibroblasts; Day 5): 213 pg/mL
IL-6 (BJ fibroblasts; Day 5): 15928 pg/mL
